Test results as given in patent US20050222029A1 (MYRIAD GENETICS, published 2005).

How the values were obtained:
VPS28 protein 27-221 = target: T1, VPS28 protein 27-221 (human, UniProt Q9UK41 27-221); experiment: yeast two-hybrid, breast and prostate cancer library
T1 construct: prey (Gal4 AD-HA fusion); also called vacuolar protein sorting 28
T1 sequence (looked up): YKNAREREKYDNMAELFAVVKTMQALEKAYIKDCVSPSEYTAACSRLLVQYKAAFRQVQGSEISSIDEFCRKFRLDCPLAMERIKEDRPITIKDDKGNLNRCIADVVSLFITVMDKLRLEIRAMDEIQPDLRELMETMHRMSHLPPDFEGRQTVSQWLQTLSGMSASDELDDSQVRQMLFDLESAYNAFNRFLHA

[1] = target: T2, GTPase-activiating protein 1 1419-1657 (human, UniProt P46940 1419-1657); experiment: yeast two-hybrid
T2 construct: prey (Gal4 AD-HA fusion); also called IQGAP1; IQGAP
T2 sequence (looked up): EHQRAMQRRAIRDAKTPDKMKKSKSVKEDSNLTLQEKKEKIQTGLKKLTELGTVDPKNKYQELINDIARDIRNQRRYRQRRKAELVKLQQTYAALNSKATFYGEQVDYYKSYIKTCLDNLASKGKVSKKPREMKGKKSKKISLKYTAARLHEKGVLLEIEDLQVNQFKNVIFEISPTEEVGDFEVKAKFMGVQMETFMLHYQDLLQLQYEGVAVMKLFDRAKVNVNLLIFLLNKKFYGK

Hook2 protein 290-555 = target: T3, Hook2 protein 290-555 (human, UniProt Q96ED9 290-555); experiment: yeast two-hybrid
T3 construct: prey (Gal4 AD-HA fusion)
T3 sequence (looked up): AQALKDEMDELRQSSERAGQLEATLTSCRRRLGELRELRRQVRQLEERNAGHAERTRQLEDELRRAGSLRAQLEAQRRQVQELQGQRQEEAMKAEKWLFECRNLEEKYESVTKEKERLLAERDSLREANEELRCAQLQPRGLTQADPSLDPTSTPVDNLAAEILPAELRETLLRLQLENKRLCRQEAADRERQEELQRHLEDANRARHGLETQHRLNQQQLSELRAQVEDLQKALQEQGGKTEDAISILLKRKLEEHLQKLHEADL

[2] = target: T4, Mitotic spindle coiled-coil related protein 723-1012 (human, UniProt Q96R06 723-1012); experiment: yeast two-hybrid
T4 construct: prey (Gal4 AD-HA fusion)
T4 sequence (looked up): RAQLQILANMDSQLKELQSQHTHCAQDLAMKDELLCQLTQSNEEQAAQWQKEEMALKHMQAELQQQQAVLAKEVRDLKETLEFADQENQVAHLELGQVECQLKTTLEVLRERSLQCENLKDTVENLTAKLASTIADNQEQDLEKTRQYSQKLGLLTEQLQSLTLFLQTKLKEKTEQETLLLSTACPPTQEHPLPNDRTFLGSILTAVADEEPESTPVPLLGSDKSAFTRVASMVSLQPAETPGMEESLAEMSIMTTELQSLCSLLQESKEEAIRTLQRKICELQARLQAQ

[3] = target: T5, GTPase-activiating protein 1 1392-1657 (human, UniProt P46940 1392-1657); experiment: yeast two-hybrid
T5 construct: prey (Gal4 AD-HA fusion); also called IQGAP1; IQGAP
T5 sequence (looked up): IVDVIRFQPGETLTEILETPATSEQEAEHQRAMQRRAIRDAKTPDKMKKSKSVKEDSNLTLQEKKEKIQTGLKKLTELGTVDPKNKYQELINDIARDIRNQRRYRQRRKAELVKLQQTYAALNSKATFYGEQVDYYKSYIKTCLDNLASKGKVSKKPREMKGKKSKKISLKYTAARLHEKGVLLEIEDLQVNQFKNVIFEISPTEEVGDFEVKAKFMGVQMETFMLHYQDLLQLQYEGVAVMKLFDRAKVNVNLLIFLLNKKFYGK

Keratin 5 282-448 = target: T6, Keratin 5 282-448 (human, UniProt P13647 282-448); experiment: yeast two-hybrid
T6 construct: prey (Gal4 AD-HA fusion)
T6 sequence (looked up): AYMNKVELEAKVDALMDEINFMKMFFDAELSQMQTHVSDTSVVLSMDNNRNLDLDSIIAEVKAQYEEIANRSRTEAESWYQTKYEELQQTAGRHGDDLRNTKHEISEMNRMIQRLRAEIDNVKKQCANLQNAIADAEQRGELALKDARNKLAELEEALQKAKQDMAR

Hook2 protein 201-559 = target: T7, Hook2 protein 201-559 (human, UniProt Q96ED9 201-559); experiment: yeast two-hybrid
T7 construct: prey (Gal4 AD-HA fusion)
T7 sequence (looked up): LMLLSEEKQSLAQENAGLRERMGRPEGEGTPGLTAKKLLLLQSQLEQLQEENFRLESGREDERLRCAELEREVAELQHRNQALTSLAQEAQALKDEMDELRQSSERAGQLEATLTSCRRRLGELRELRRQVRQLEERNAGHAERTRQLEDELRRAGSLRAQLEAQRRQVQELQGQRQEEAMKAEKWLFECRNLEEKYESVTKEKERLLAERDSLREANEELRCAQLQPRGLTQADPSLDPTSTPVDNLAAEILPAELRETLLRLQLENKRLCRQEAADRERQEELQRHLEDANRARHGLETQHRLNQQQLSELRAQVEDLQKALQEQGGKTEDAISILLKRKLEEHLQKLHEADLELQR

[4] = target: T8, Mitotic spindle coiled-coil related protein 668-895 (human, UniProt Q96R06 668-895); experiment: yeast two-hybrid
T8 construct: prey (Gal4 AD-HA fusion)
T8 sequence (looked up): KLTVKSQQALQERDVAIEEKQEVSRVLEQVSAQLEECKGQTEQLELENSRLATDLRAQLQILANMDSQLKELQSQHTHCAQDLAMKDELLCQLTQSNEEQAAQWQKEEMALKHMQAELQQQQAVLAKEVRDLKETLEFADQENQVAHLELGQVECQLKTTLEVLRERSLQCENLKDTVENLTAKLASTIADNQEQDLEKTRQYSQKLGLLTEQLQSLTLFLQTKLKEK

Measured: binding result

B1: Tumor Suppressor (TSG101) 240-391 (other, human, UniProt Q99816 240-390, looked up)
chain: WRMKEEMDRAQAELNALKRTEEDLKKGHQKLEEMVTRLDQEVAEVDKNIELLKKKDEELSSALEKMENQSENNDIDEVIIPTAPLYKQILNLYAEENAIEDTIFYLGEALRRGVIDLDVFLKHVRLLSRKQFQLRALMQKARKTAGLSDLY
notes: range 240-391; bait (Gal4 DBD fusion); also called TSG101 240-390
binds: all assays above
